Reference: the RNAGym collection of RNA variant scans (doi:10.7554/elife.90254)

B1: OR4K15 (parent)
chain: GUUAACGGUCAUAGGCCAUGGAAACUAGGAGCACCAUUUCGCUGCCAGUGAAGAAAUGAACAAAGAAAAUCUGGGCCAGGCAGGCAUCAAAAGAAAUAGUCUUGCGCUCAACCAGAAAGUCUGUAAUCAUUUUAAGGGUA

Variants of: B1
Experiment: self-cleavage, relative activity (ratio to wild type); higher = more cleavage; in vitro, sequencing; the parent is a self-cleaving ribozyme

Variant	self-cleavage
GUUAACGGUCAUAGGCCAUGGAAACUAGGAGCACCAUUUCCCUGCCAGUGAAGAAAUGAACAAAGAAAAUCUGGGCCAGGCAGGCAUCAAAAGAAAUAGUCUUGCGCUCAACCAGAAAGUCAGUAAUCAUUUUAAGGGUA [G41C U122A]	1.57
GUUAACGGUCAUAGGCCAUGGAAACUAGGAGCACCAUUUCGAUGCCAGUGAAGAAAUGAACAAAGAAAAUCUGGGCCAGGCAGGCAUCAAUAGAAAUAGUCUUGCGCUCAACCAGAAAGUCUGUAAUCAUUUUAAGGGUA [C42A A91U]	0.86
GUUAACGGUCAUAGGCCAUGGAAACUAGGAGCACCAUUUCCCUGCCAGUGCAGAAAUGAACAAAGAAAAUCUGGGCCAGGCAGGCAUCAAAAGAAAUAGUCUUGCGCUCAACCAGAAAGUCUGUAAUCAUUUUAAGGGUA [G41C A51C]	0.71
GUUAACGGUCAUAGGCCAUGGAAACUAGGAGCACCAUUUCUCUGCCAGUGAAGAAAUGAACAAAGAAAAUCUGGGCCAGGCAGGCAUCAAAAGAAAUAGUCUUGCGCUCAACCAGAAAGUCCGUAAUCAUUUUAAGGGUA [G41U U122C]	1.34
GUUAACGGUCAUAGGCCAUGGAAACUAGGAGCACCAUUUCCCUGCCAGUGAAGAAAUGAACAAAGAUAAUCUGGGCCAGGCAGGCAUCAAAAGAAAUAGUCUUGCGCUCAACCAGAAAGUCUGUAAUCAUUUUAAGGGUA [G41C A67U]	1.8
GUUAACGGUCAUAGGCCAUGGAAACUAGGAGCACCAUUUCUCUGCCAGUGAAGAAAUGAACAAAGAAAAUCUGGGCCAGGCAGGCAUCGAAAGAAAUAGUCUUGCGCUCAACCAGAAAGUCUGUAAUCAUUUUAAGGGUA [G41U A89G]	2.13
GUUAACGGUCAUAGGCCAUGGAAACUAGGAGCACCAUUUCUCUGCCGGUGAAGAAAUGAACAAAGAAAAUCUGGGCCAGGCAGGCAUCAAAAGAAAUAGUCUUGCGCUCAACCAGAAAGUCUGUAAUCAUUUUAAGGGUA [G41U A47G]	1.2
GUUAACGGUCAUAGGCCAUGGAAACUAGGAGCACCAUUUCACUGCCAGUGAAGAAAUGAACAAAGAAAAUCUGGGCCAGGCAGGCAUCAAAAGAAAUAGUCUUGCGCUCAACCAGAAAGUCUGUAACCAUUUUAAGGGUA [G41A U127C]	1.22
GUUAACGGUCAUAGGCCAUGGAAACUAGGAGCACCAUUUCCCUGCCAGUGAUGAAAUGAACAAAGAAAAUCUGGGCCAGGCAGGCAUCAAAAGAAAUAGUCUUGCGCUCAACCAGAAAGUCUGUAAUCAUUUUAAGGGUA [G41C A52U]	2.16
GUUAACGGUCAUAGGCCAUGGAAACUAGGAGCACCAUUUCCCUGCCAGUGAAGAAAUGAACAAAGAAAAUCUGGGCCAGGCAGGCCUCAAAAGAAAUAGUCUUGCGCUCAACCAGAAAGUCUGUAAUCAUUUUAAGGGUA [G41C A86C]	0.81
GUUAACGGUCAUAGGCCAUGGAAACUAGGAGCACCAUUUCGUUGCCAGUGAAGAAAUGAACAAAGAAAAUCUGGGCCAGGCAGGCAUCAAAAGAAAUAGUCUUGCGCUCAACCAGGAAGUCUGUAAUCAUUUUAAGGGUA [C42U A116G]	0.68
GUUAACGGUCAUAGGCCAUGGAAACUAGGAGCACCAUUUCCCUGCCAGUGAAGAAAUGAACAAAGAAAAUCUGGGCCAGGCAGGCAUCAAAAGAGAUAGUCUUGCGCUCAACCAGAAAGUCUGUAAUCAUUUUAAGGGUA [G41C A95G]	2.25
GUUAACGGUCAUAGGCCAUGGAAACUAGGAGCACCAUUUCUCUGCCAGUGAAGAAAUGAACAAAGAAGAUCUGGGCCAGGCAGGCAUCAAAAGAAAUAGUCUUGCGCUCAACCAGAAAGUCUGUAAUCAUUUUAAGGGUA [G41U A68G]	1.46
GUUAACGGUCAUAGGCCAUGGAAACUAGGAGCACCAUUUCUCUGCCAGUGAAGAAAUGAACAAAGGAAAUCUGGGCCAGGCAGGCAUCAAAAGAAAUAGUCUUGCGCUCAACCAGAAAGUCUGUAAUCAUUUUAAGGGUA [G41U A66G]	1.11
GUUAACGGUCAUAGGCCAUGGAAACUAGGAGCACCAUUUCCCUGCCAGUGAAGAAAUGAACAAAGAAAAUCUGGGCCAGGCAGGCAUCAAAAGAAAUAGUCUUGCGCUCAACCAGAAAGUCUGUAAUCAUUUUAAGGGUA [G41C]	1.78
GUUAACGGUCAUAGGCCAUGGAAACUAGGAGCACCAUUUCUCUGCCAGUGAAGAAAUGAACAAAGAAAAUCUGGGCCAGGCAGGCAUCAAAAGAAAUAGUCUUGCGCUCAACCAGAAAGUCUGUAAUCAUUUUAAGGGUA [G41U]	1.74
GUUAACGGUCAUAGGCCAUGGAAACUAGGAGCACCAUUUCACUGCCAGUGAAGAAAUGAACAAAGAAAAUCUGGGCCAGGCAGGCAUCAAAAGAAAUAGUCUUGCGCUCAACCAGAAAGUCUGUAAUCACUUUAAGGGUA [G41A U130C]	0.99
GUUAACGGUCAUAGGCCAUGGAAACUAGGAGCACCAUUUCACUGCCAGUGAAGAAAUGAACAAAGAAAAUCUGGGCCAGGCAGGCAUCAAAAGAAAUAGUCUUGCGCUCAACCAGAAAGUCUGUAAUCAUUUCAAGGGUA [G41A U133C]	1.98
GUUAACGGUCAUAGGCCAUGGAAACUAGGAGCACCAUUUCGGUGCCAGUGGAGAAAUGAACAAAGAAAAUCUGGGCCAGGCAGGCAUCAAAAGAAAUAGUCUUGCGCUCAACCAGAAAGUCUGUAAUCAUUUUAAGGGUA [C42G A51G]	1.47
GUUAACGGUCAUAGGCCAUGGAAACUAGGAGCACCAUUUCUCUGCCAGUGAAGAAAUGAGCAAAGAAAAUCUGGGCCAGGCAGGCAUCAAAAGAAAUAGUCUUGCGCUCAACCAGAAAGUCUGUAAUCAUUUUAAGGGUA [G41U A60G]	1.9
GUUAACGGUCAUAGGCCAUGGAAACUAGGAGCACCAUUUCGGUGCCUGUGAAGAAAUGAACAAAGAAAAUCUGGGCCAGGCAGGCAUCAAAAGAAAUAGUCUUGCGCUCAACCAGAAAGUCUGUAAUCAUUUUAAGGGUA [C42G A47U]	1.02

Variant	self-cleavage
GUUAACGGUCAUAGGCCAUGGAAACUAGGAGCACCAUUUCGAUGCCAGUGAAGAAAUGAACAAAGAAAGUCUGGGCCAGGCAGGCAUCAAAAGAAAUAGUCUUGCGCUCAACCAGAAAGUCUGUAAUCAUUUUAAGGGUA [C42A A69G]	1.88
GUUAACGGUCAUAGGCCAUGGAAACUAGGAGCACCAUUUCCCUGCCAGUGAAGAAAUGAACAAAGUAAAUCUGGGCCAGGCAGGCAUCAAAAGAAAUAGUCUUGCGCUCAACCAGAAAGUCUGUAAUCAUUUUAAGGGUA [G41C A66U]	1.25
GUUAACGGUCAUAGGCCAUGGAAACUAGGAGCACCAUUUCGUUGCCAGUGAAGAAAUGAACAAAGAAAAUCUGGGCCAGGCAGGCAUCAAAAGAAAUAGUCUUGCGCUCAACCAGAAAGUCUGUAAUCAUUUUAAGGGUA [C42U]	1.44
GUUAACGGUCAUAGGCCAUGGAAACUAGGAGCACCAUUUCGGUGCCAGUGAAGAAAUGAACAAAGAAAAUCUGGGCCAGGCAGGCAUCAAAAGAAAUAGUCUUGCGCUCAACCAGAAAGUCUGUAAUCAUUUUAAGGGUA [C42G]	1.62
GUUAACGGUCAUAGGCCAUGGAAACUAGGAGCACCAUUUCGAUGCCAGUGAAGAAAUGAACAAAGAAAAUCUGGGCCAGGCAGGCAUCAAAAGAAAUAGUCUUGCGCUCAACCAGAAAGUCUGUAAUCAUUUUAAGGGUA [C42A]	0.45
GUUAACGGUCAUAGGCCAUGGAAACUAGGAGCACCAUUUCCCUGCCAGUGAAGAAAUGAACAAAGAAAAUCUGGGCCAGGCAGGCACCAAAAGAAAUAGUCUUGCGCUCAACCAGAAAGUCUGUAAUCAUUUUAAGGGUA [G41C U87C]	2.03
GUUAACGGUCAUAGGCCAUGGAAACUAGGAGCACCAUUUCGGUGCCAGUGAAGAAAUGAACAAAGAAAAUCUGGGCCAGGCAGGCAUCAAAAGAAAUAGUCUUGCGCUCAGCCAGAAAGUCUGUAAUCAUUUUAAGGGUA [C42G A111G]	0
GUUAACGGUCAUAGGCCAUGGAAACUAGGAGCACCAUUUCUCUGCCAGUGAAGAGAUGAACAAAGAAAAUCUGGGCCAGGCAGGCAUCAAAAGAAAUAGUCUUGCGCUCAACCAGAAAGUCUGUAAUCAUUUUAAGGGUA [G41U A55G]	2.29
GUUAACGGUCAUAGGCCAUGGAAACUAGGAGCACCAUUUCCCUGCCAGUGAAGAAAUGAACAAUGAAAAUCUGGGCCAGGCAGGCAUCAAAAGAAAUAGUCUUGCGCUCAACCAGAAAGUCUGUAAUCAUUUUAAGGGUA [G41C A64U]	2.26
GUUAACGGUCAUAGGCCAUGGAAACUAGGAGCACCAUUUCUCUGCCAGUGAAGAAAUGAACAAAGAAAAUCUGGGCCAGGCAGGCAUCAAAAGAAAUAGUCUUGCGCUCAACCAGAAAGUCUGUAAUCACUUUAAGGGUA [G41U U130C]	1.59
GUUAACGGUCAUAGGCCAUGGAAACUAGGAGCACCAUUUCCCCGCCAGUGAAGAAAUGAACAAAGAAAAUCUGGGCCAGGCAGGCAUCAAAAGAAAUAGUCUUGCGCUCAACCAGAAAGUCUGUAAUCAUUUUAAGGGUA [G41C U43C]	2.19
GUUAACGGUCAUAGGCCAUGGAAACUAGGAGCACCAUUUCGUUGCCAGUGAAGAAAUGAACAAAGAAAAUCUGGGCCAGGCAGGCAUCAAAAGAGAUAGUCUUGCGCUCAACCAGAAAGUCUGUAAUCAUUUUAAGGGUA [C42U A95G]	2.84
GUUAACGGUCAUAGGCCAUGGAAACUAGGAGCACCAUUUCGUUGCCAGUGAAGGAAUGAACAAAGAAAAUCUGGGCCAGGCAGGCAUCAAAAGAAAUAGUCUUGCGCUCAACCAGAAAGUCUGUAAUCAUUUUAAGGGUA [C42U A54G]	1.96
GUUAACGGUCAUAGGCCAUGGAAACUAGGAGCACCAUUUCGAUGCCAGUGAAGAAAUGAACAAAGAAAAUCUGGGCCAUGCAGGCAUCAAAAGAAAUAGUCUUGCGCUCAACCAGAAAGUCUGUAAUCAUUUUAAGGGUA [C42A G79U]	0.02
GUUAACGGUCAUAGGCCAUGGAAACUAGGAGCACCAUUUCGGAGCCAGUGAAGAAAUGAACAAAGAAAAUCUGGGCCAGGCAGGCAUCAAAAGAAAUAGUCUUGCGCUCAACCAGAAAGUCUGUAAUCAUUUUAAGGGUA [C42G U43A]	1.91
GUUAACGGUCAUAGGCCAUGGAAACUAGGAGCACCAUUUCUCUGCCAGUGAAGAAAUGAACAAAGAAAAUCUGGGCCAGGCAGGCAUCAAAAGAAAUAGUCUUGCGCUCAACCAGAGAGUCUGUAAUCAUUUUAAGGGUA [G41U A117G]	1.93
GUUAACGGUCAUAGGCCAUGGAAACUAGGAGCACCAUUUCUCUGCCAGUGAGGAAAUGAACAAAGAAAAUCUGGGCCAGGCAGGCAUCAAAAGAAAUAGUCUUGCGCUCAACCAGAAAGUCUGUAAUCAUUUUAAGGGUA [G41U A52G]	1.47
GUUAACGGUCAUAGGCCAUGGAAACUAGGAGCACCAUUUCGAUGCCAGUGAAGAAAUGAACAAAGAAAAUCUGGGCCAGGCAGGCAUCAAAAGAAAUAGUCUUGCGCUCAACCAGAAAGACUGUAAUCAUUUUAAGGGUA [C42A U120A]	1.7
GUUAACGGUCAUAGGCCAUGGAAACUAGGAGCACCAUUUCACUGCCAGUGAAGAAAUGAACAAAGAAAAUCUGGGCCAGGCAGGCAUCAAAAGAAAUAGUCUUGCGCUCAACCAGAAAGUCUGUAAUCAUUCUAAGGGUA [G41A U132C]	1.79
GUUAACGGUCAUAGGCCAUGGAAACUAGGAGCACCAUUUCGUUGCCAGUGAAGAAAUGAGCAAAGAAAAUCUGGGCCAGGCAGGCAUCAAAAGAAAUAGUCUUGCGCUCAACCAGAAAGUCUGUAAUCAUUUUAAGGGUA [C42U A60G]	1.17
